Positions count from the first letter of the chain named.
B1: Ab#11 (bispecific antibody, human IgG1, kappa)
heavy: QLQLQESGPGLVKPSETLSLTCTVSGGSISSSVYYWSWIRQPPGKGLEWIGVIYPSGNTYYSPSLKSRVTISVDTSKNQFSLKLSSVTAADTAVYYCARTIYDLFDIWGQGTMVTVSSASTKGPSVFPLAPSSKSTSGGTAALGCLVKDYFPEPVTVSWNSGALTSGVHTFPAVLQSSGLYSLSSVVTVPSSSLGTQTYICNVNHKPSNTKVDKKVEPKSCDKTHTCPSCPAPEFLGGPSVFLFPPKPKDTLMISRTPEVTCVVVDVSQEDPEVQFNWYVDGVEVHNAKTKPREEQFNSKYRVVSVLTVLHQDWLNGKEYKCKVSNKGLPSSIEKTISKAKGQPREPQVYTLPPSREEMTKNQVSLSCAVKGFYPSDIAVEWESNGQPENNYKTTPPVLDSDGSFFLVSKLTVDKSRWQQGNVFSCSVMHEALHNHYTQKSLSLSKSCDKTGGGGSGGGGSGGGGSGGGGSGGGGSGGGGSGGGGSGGGGSCPSCPAPEFLGGPSVFLFPPKPKDTLMISRTPEVTCVVVDVSQEDPEVQFNWYVDGVEVHNAKTKPREEQFNSDYRVVSVLTVLHQDWLNGKEYKCKVSNKGLPSSIEKTISKAKGQPREPQVYTLPPSREEMTKNQVSLWCLVKGFYPSDIAVEWESNGQPENNYKTTPPVLDSDGSFFLYSKLTVDKSRWQQGNVFSCSVMHEALHNHYTQKSLSLSGECGGGGSGGGGSDIVMTQSPSSLSASVGDKATITCRSTKSLLHSNGITYLYWYLQKPGKAPKLLIYQMSNLASGVPDRFSSSGSGTEFTLTISSVQPEDEGTYYCAQNLEIPRTFGQGTKLEIKRTGGGGSGGGGSGGGGSGGGGSGQVQLQQSGGGLVKPGESVKISCAASGYTFTNYGMNWVKQAPGKGLKWMGWINTYTGESTYADDFKGRFTFSLETSASAAYLQINSLRPEDTAVYFCARFAIKGDYWGQGTTVTVSS
light: DIQMTQSPSSVSASVGDRVTITCRASQGISSWLAWYQQKPGKAPKLLIYAASSLQSGVPSRFSGSGSGTDFTLTISSLQPEDFATYYCLQANSFPPTFGGGTKVEIKRTVAAPSVFIFPPSDEQLKSGTASVVCLLNNFYPREAKVQWKVDNALQSGNSQESVTEQDSKDSTYSLSSTLTLSKADYEKHKVYACEVTHQGLSSPVTKSFNRGEC
notes: Anti-c-Met Fab / tandem Fc / anti-EpCAM scFv TFcBA; also called Antibody #11
B2: Ab#12 (bispecific antibody)
heavy: B1 heavy with N756D, M779L
light: B1 light
notes: Anti-c-Met Fab / tandem Fc / anti-EpCAM scFv TFcBA; also called Antibody #12
B3: Onartuzumab-23E (antibody)
heavy: EVQLVESGGGLVQPGGSLRLSCAASGYTFTSYWLHWVRQAPGKGLEWVGMIDPSNSDTRFNPNFKDRFTISADTSKNTAYLQMNSLRAEDTAVYYCATYRSYVTPLDYWGQGTLVTVSSASTKGPSVFPLAPSSKSTSGGTAALGCLVKDYFPEPVTVSWNSGALTSGVHTFPAVLQSSGLYSLSSVVTVPSSSLGTQTYICNVNHKPSNTKVDKKVEPKSCDKTHTCPPCPAPELLGGPSVFLFPPKPKDTLMISRTPEVTCVVVDVSHEDPEVKFNWYVDGVEVHNAKTKPREEQYQSTYRVVSVLTVLHQDWLNGKEYKCKVSNKALPAPIEKTISKAKGQPREPQVYTLPPSREEMTKNQVSLSCAVKGFYPSDIAVEWESNGQPENNYKTTPPVLDSDGSFFLVSKLTVDKSRWQQGNVFSCSVMHEALHNHYTQKSLSLSKSCDKTGGGGSGGGGSGGGGSGGGGSGGGGSGGGGSGGGGSGGGGSCPPCPAPELLGGPSVFLFPPKPKDTLMISRTPEVTCVVVDVSHEDPEVKFNWYVDGVEVHNAKTKPREEQYQSTYRVVSVLTVLHQDWLNGKEYKCKVSNKALPAPIEKTISKAKGQPREPQVYTLPPSREEMTKNQVSLWCLVKGFYPSDIAVEWESNGQPENNYKTTPPVLDSDGSFFLYSKLTVDKSRWQQGNVFSCSVMHEALHNHYTQKSLSLSGEC
light: DIQMTQSPSSLSASVGDRVTITCKSSQSLLYTSSQKNYLAWYQQKPGKAPKLLIYWASTRESGVPSRFSGSGSGTDFTLTISSLQPEDFATYYCQQYYAYPWTFGQGTKVEIKRTVAAPSVFIFPPSDEQLKSGTASVVCLLNNFYPREAKVQWKVDNALQSGNSQESVTEQDSKDSTYSLSSTLTLSKADYEKHKVYACEVTHQGLSSPVTKSFNRGEC
notes: Monovalent tandem Fc antibody: onartuzumab anti-c-Met Fab on IgG1 TFc 23E
B4: Onartuzumab-39EGY4 (antibody)
heavy: EVQLVESGGGLVQPGGSLRLSCAASGYTFTSYWLHWVRQAPGKGLEWVGMIDPSNSDTRFNPNFKDRFTISADTSKNTAYLQMNSLRAEDTAVYYCATYRSYVTPLDYWGQGTLVTVSSASTKGPSVFPLAPSSKSTSGGTAALGCLVKDYFPEPVTVSWNSGALTSGVHTFPAVLQSSGLYSLSSVVTVPSSSLGTQTYICNVNHKPSNTKVDKKVEPKSCDKTHTCPSCPAPEFLGGPSVFLFPPKPKDTLMISRTPEVTCVVVDVSQEDPEVQFNWYVDGVEVHNAKTKPREEQFNSKYRVVSVLTVLHQDWLNGKEYKCKVSNKGLPSSIEKTISKAKGQPREPQVYTLPPSREEMTKNQVSLSCAVKGFYPSDIAVEWESNGQPENNYKTTPPVLDSDGSFFLVSKLTVDKSRWQQGNVFSCSVMHEALHNHYTQKSLSLSKSCDKTGGGGSGGGGSGGGGSGGGGSGGGGSGGGGSGGGGSGGGGSCPSCPAPEFLGGPSVFLFPPKPKDTLMISRTPEVTCVVVDVSQEDPEVQFNWYVDGVEVHNAKTKPREEQFNSDYRVVSVLTVLHQDWLNGKEYKCKVSNKGLPSSIEKTISKAKGQPREPQVYTLPPSREEMTKNQVSLWCLVKGFYPSDIAVEWESNGQPENNYKTTPPVLDSDGSFFLYSKLTVDKSRWQQGNVFSCSVMHEALHNHYTQKSLSLSGEC
light: B3 light
notes: Monovalent tandem Fc antibody: onartuzumab anti-c-Met Fab on IgG1/IgG4 hybrid TFc 39E glycoform 4
B5: Onartuzumab-39EGY4-2224 (bispecific antibody)
heavy: EVQLVESGGGLVQPGGSLRLSCAASGYTFTSYWLHWVRQAPGKGLEWVGMIDPSNSDTRFNPNFKDRFTISADTSKNTAYLQMNSLRAEDTAVYYCATYRSYVTPLDYWGQGTLVTVSSASTKGPSVFPLAPSSKSTSGGTAALGCLVKDYFPEPVTVSWNSGALTSGVHTFPAVLQSSGLYSLSSVVTVPSSSLGTQTYICNVNHKPSNTKVDKKVEPKSCDKTHTCPSCPAPEFLGGPSVFLFPPKPKDTLMISRTPEVTCVVVDVSQEDPEVQFNWYVDGVEVHNAKTKPREEQFNSKYRVVSVLTVLHQDWLNGKEYKCKVSNKGLPSSIEKTISKAKGQPREPQVYTLPPSREEMTKNQVSLSCAVKGFYPSDIAVEWESNGQPENNYKTTPPVLDSDGSFFLVSKLTVDKSRWQQGNVFSCSVMHEALHNHYTQKSLSLSKSCDKTGGGGSGGGGSGGGGSGGGGSGGGGSGGGGSGGGGSGGGGSCPSCPAPEFLGGPSVFLFPPKPKDTLMISRTPEVTCVVVDVSQEDPEVQFNWYVDGVEVHNAKTKPREEQFNSDYRVVSVLTVLHQDWLNGKEYKCKVSNKGLPSSIEKTISKAKGQPREPQVYTLPPSREEMTKNQVSLWCLVKGFYPSDIAVEWESNGQPENNYKTTPPVLDSDGSFFLYSKLTVDKSRWQQGNVFSCSVMHEALHNHYTQKSLSLSGECGGGGSGGGGSEVQLVQSGAEVKKPGSSVKVSCKASGGTFSSYAIGWVRQAPGQGLEWMGGIIPIFGIANYAQKFQGRVTITADESTSSAYMELSSLRSEDTAVYYCAREEGPYCSSTSCYAAFDIWGQGTLVTVSSASTGGGGSGGGGSGGGGSGGGGSQSVLTQDPAVSVALGQTVKITCQGDSLRSYFASWYQQKPGQAPTLVMYARNDRPAGVPDRFSGSKSGTSASLAISGLQPEDEADYYCAAWDDSLNGYLFGAGTKLTVL
light: B3 light
notes: Anti-c-Met Fab / TFc 39E glycoform 4 / anti-EGFR 2224 scFv; also called Onartuzumab-39EGY4-224; onartuzumab-39Egy-2224
B6: Onartuzumab-39 (antibody)
heavy: EVQLVESGGGLVQPGGSLRLSCAASGYTFTSYWLHWVRQAPGKGLEWVGMIDPSNSDTRFNPNFKDRFTISADTSKNTAYLQMNSLRAEDTAVYYCATYRSYVTPLDYWGQGTLVTVSSASTKGPSVFPLAPSSKSTSGGTAALGCLVKDYFPEPVTVSWNSGALTSGVHTFPAVLQSSGLYSLSSVVTVPSSSLGTQTYICNVNHKPSNTKVDKKVEPKSCDKTHTCPSCPAPEFLGGPSVFLFPPKPKDTLMISRTPEVTCVVVDVSQEDPEVQFNWYVDGVEVHNAKTKPREEQFNSKYRVVSVLTVLHQDWLNGKEYKCKVSNKGLPSSIEKTISKAKGQPREPQVYTLPPSREEMTKNQVSLSCAVKGFYPSDIAVEWESNGQPENNYKTTPPVLDSDGSFFLVSKLTVDKSRWQQGNVFSCSVMHEALHNHYTQKSLSLSPGKGGGGSGGGGSGGGGSGGGGSGGGGSGGGGSGGGGSGGGGSCPSCPAPEFLGGPSVFLFPPKPKDTLMISRTPEVTCVVVDVSQEDPEVQFNWYVDGVEVHNAKTKPREEQFNSKYRVVSVLTVLHQDWLNGKEYKCKVSNKGLPSSIEKTISKAKGQPREPQVYTLPPSREEMTKNQVSLWCLVKGFYPSDIAVEWESNGQPENNYKTTPPVLDSDGSFFLYSKLTVDKSRWQQGNVFSCSVMHEALHNHYTQKSLSLSPGK
light: B3 light
notes: Monovalent tandem Fc antibody: onartuzumab anti-c-Met Fab on IgG1/IgG4 hybrid TFc 39
B7: Onartuzumab-23 (antibody)
heavy: EVQLVESGGGLVQPGGSLRLSCAASGYTFTSYWLHWVRQAPGKGLEWVGMIDPSNSDTRFNPNFKDRFTISADTSKNTAYLQMNSLRAEDTAVYYCATYRSYVTPLDYWGQGTLVTVSSASTKGPSVFPLAPSSKSTSGGTAALGCLVKDYFPEPVTVSWNSGALTSGVHTFPAVLQSSGLYSLSSVVTVPSSSLGTQTYICNVNHKPSNTKVDKKVEPKSCDKTHTCPPCPAPELLGGPSVFLFPPKPKDTLMISRTPEVTCVVVDVSHEDPEVKFNWYVDGVEVHNAKTKPREEQYQSTYRVVSVLTVLHQDWLNGKEYKCKVSNKALPAPIEKTISKAKGQPREPQVYTLPPSREEMTKNQVSLSCAVKGFYPSDIAVEWESNGQPENNYKTTPPVLDSDGSFFLVSKLTVDKSRWQQGNVFSCSVMHEALHNHYTQKSLSLSPGKGGGGSGGGGSGGGGSGGGGSGGGGSGGGGSGGGGSGGGGSCPPCPAPELLGGPSVFLFPPKPKDTLMISRTPEVTCVVVDVSHEDPEVKFNWYVDGVEVHNAKTKPREEQYQSTYRVVSVLTVLHQDWLNGKEYKCKVSNKALPAPIEKTISKAKGQPREPQVYTLPPSREEMTKNQVSLWCLVKGFYPSDIAVEWESNGQPENNYKTTPPVLDSDGSFFLYSKLTVDKSRWQQGNVFSCSVMHEALHNHYTQKSLSLSPGK
light: B3 light
notes: Monovalent tandem Fc antibody: onartuzumab anti-c-Met Fab on IgG1 TFc 23

What follows are binders tested against T1, Human EpCAM-Fc-his tagged (human) (assay: BLI (ForteBio Octet), antibody loaded on Protein A tips, recombinant polyhistidine-tagged EpCAM-Fc in solution, 1:1 model).
T1 construct: also called Recombinant polyhistidine-tagged EpCAM-Fc; recombinant EpCAM
T1 sequence (chain, as listed by the source): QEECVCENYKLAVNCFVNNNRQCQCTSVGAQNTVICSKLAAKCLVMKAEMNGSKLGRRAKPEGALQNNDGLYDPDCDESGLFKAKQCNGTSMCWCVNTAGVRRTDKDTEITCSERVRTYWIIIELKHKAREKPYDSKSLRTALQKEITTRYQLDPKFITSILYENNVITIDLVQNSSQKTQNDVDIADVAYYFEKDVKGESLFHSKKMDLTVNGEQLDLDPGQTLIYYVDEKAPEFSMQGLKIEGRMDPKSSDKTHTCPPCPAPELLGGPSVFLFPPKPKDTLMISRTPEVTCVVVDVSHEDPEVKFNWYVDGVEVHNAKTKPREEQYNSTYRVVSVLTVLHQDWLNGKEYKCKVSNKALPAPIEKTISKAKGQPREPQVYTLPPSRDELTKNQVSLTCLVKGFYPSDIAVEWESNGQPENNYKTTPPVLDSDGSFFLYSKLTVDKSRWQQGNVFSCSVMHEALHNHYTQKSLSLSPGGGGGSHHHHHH
Description: For Octet analysis, all reagents and samples are brought to room temperature. Protein A sensor tips (ForteBio, #18-5010) are hydrated for 10 minutes in 1×PBS. Assay steps include: 1-2 minutes of equilibration in 1×PBS, 4 minutes of antibody loading (concentration of 50 μg/ml in 1×PBS), 1-2 minutes of baseline stabilization, 4 minutes of antibody:antigen association, and 4 minutes of antibody:antigen dissociation. 1×PBS is used as the matrix throughout. Data are analyzed with Octet Data Analysis software, processed, and fit to a 1:1 binding model to determine kinetic parameters (Kd, kₒₙ and kdiss).
Table A-2 describes approximate EpCAM binding affinity and dissociation rate as determined for Ab#1, Ab#2, Ab#3, Ab#4, Ab#5, Ab#6, Ab#7, Ab#8, Ab#9, Ab#10, Ab#11, Ab#12, and Ab#13.

Kd | koff | Binder
4.57 nM | 0.000409 s⁻¹ | B1
24.5 nM | 0.00166 s⁻¹ | B2

What follows are binders tested against T2, cMet-his (Homo sapiens (Human), UniProt P08581 25-933) (assay: BLI (ForteBio Octet), antibody loaded on Protein A tips, his tagged cMET in solution, 1:1 model).
T2 construct: also called his tagged cMET; Recombinant polyhistidine-tagged c-Met
Description: Protocol: All reagents are equilibrated and samples are brought to room temperature. Protein A sensor tips (Fortebio, #18-5010) are hydrated for 10 min in 1×PBS. Kinetic assays are run using the Octet software and procedure per manufacturer's instruction. Assay steps typically include: 1-2 min of equilibration in 1×PBS, 4 min of antibody loading (conc: 50 μg/mL in 1×PBS), 1-2 min of baseline stabilization, 4 min of antibody:antigen association, and 4 min of antibody:antigen dissociation. 1×PBS is used as the matrix throughout. Data are analyzed with Octet Data Analysis software, processed, and fit to the curve using 1:1 binding model to determine kinetic parameters (Kₐ, Kₒₙ and Koff)

Kd | Binder
1.3 nM | B3
1.25 nM | B4
1.29 nM | B5
1.26 nM | B6
1.24 nM | B7

From patent publication US20140302035A1 (MERRIMACK PHARMACEUTICALS, published 2014)
